The target of test [1] is T1, HLA-DRB1*1302 (human).
T1 chain 1: not shown
T1 chain 2: not shown
The experiment in a line: inhibition of 125I probe peptide binding to purified HLA-DR, gel filtration. The conditions noted are these: remark: other sources report otherwise. On the technique in general: SEC sorts molecules by how far they enter the pores of the column.

The target in test [2] is T2, HLA-DRB1*0101 (human).
T2 chain 1: not shown
T2 chain 2: not shown
The experiment in a line: competition with 125I probe peptide, purified HLA. The conditions noted are these: remark: other sources report otherwise.

Test [3] concerns the target T2, HLA-DRB1*0101 (human). The experiment in a line: inhibition of 125I probe peptide binding to purified HLA-DR, gel filtration. The conditions noted are these: remark: other sources report otherwise.
In test [4] the target is T2, HLA-DRB1*0101 (human). The experiment in a line: competition with 125I-labelled standard peptide, purified HLA-DR, gel filtration. The conditions noted are these: remark: other sources report otherwise.
Test [5] concerns the target T3, HLA-DRB1*0701 (human).
T3 chain 1: not shown
T3 chain 2: not shown
The experiment in a line: competition with 125I probe peptide, purified HLA. The conditions noted are these: remark: other sources report otherwise.

Test [6] has as its target T3, HLA-DRB1*0701 (human). The experiment in a line: inhibition of 125I probe peptide binding to purified HLA-DR, gel filtration. The conditions noted are these: remark: other sources report otherwise.
Test [7] addresses T4, HLA-DRB1*1101 (human).
T4 chain 1: not shown
T4 chain 2: not shown
Described as above. The conditions noted are these: remark: other sources report otherwise.

Test [8] concerns the target T4, HLA-DRB1*1101 (human). The experiment in a line: competition with 125I-labelled standard peptide, purified HLA-DR, gel filtration. The conditions noted are these: remark: other sources report otherwise.
Test [9] concerns the target HLA-A*3101 (human). The experiment in a line: competition with 125I-labelled standard peptide for purified HLA; gel filtration. The conditions noted are these: remark: other sources report otherwise.
Test [10] addresses T5, HLA-DR3 (DRB1*0301) (human).
T5 chain 1: not shown
T5 chain 2: not shown
The experiment in a line: competition binding assay, purified HLA, 125I-labelled probe peptide, gel filtration. The conditions noted are these: remark: other sources report otherwise.

For test [11] the target is unchanged. The experiment in a line: competition with 125I-labelled probe peptide on purified HLA-DR, gel filtration; IC50 of standard peptide / IC50 of test peptide. The conditions noted are these: remark: other sources report otherwise.
Test [12] addresses T6, HLA-DR3 (human).
T6 chain 1: not shown
T6 chain 2: not shown
The experiment in a line: competitive inhibition of 125I-labeled probe peptide binding to purified HLA-DR3. The conditions noted are these: remark: other sources report otherwise.

For test [13], the target named is T7, HLA-DRB1*0301 (human).
T7 chain 1: not shown
T7 chain 2: not shown
The experiment in a line: competition with 125I-labeled standard peptide, purified HLA-DR, gel filtration. The conditions noted are these: remark: other sources report otherwise.

Test [14] has as its target HLA-B*0702 (human). The experiment in a line: competition with 125I-labelled probe peptide for purified HLA, gel filtration. The conditions noted are these: scale: ratio.
Test [15] has as its target HLA-A*0101 (human). The experiment in a line: competition with 125I-labelled probe peptide for purified HLA-A*0101, gel filtration. The conditions noted are these: remark: other sources report otherwise; scale: ratio.
The target in test [16] is HLA-A*1101 (human). The experiment in a line: inhibition of 125I-labelled probe peptide binding to purified HLA-A*1101, gel filtration. The conditions noted are these: remark: other sources report otherwise.
Test [17] addresses HLA-A*0101 (human). The experiment in a line: competition with 125I-labelled probe peptide for purified HLA-A*0101, gel filtration; relative to standard peptide. The conditions noted are these: remark: other sources report otherwise.
In test [18] the target is HLA-A*0301 (human). The experiment in a line: inhibition of 125I-labelled probe peptide binding to purified HLA-A*0301, gel filtration; ratio to standard peptide 941.12 ([..], 11 nM). The conditions noted are these: remark: other sources report otherwise.
The target of test [19] is HLA-A*0101 (human). The experiment in a line: competition with 125I-labelled probe peptide for purified HLA-A*0101, gel filtration; ratio = IC50 of standard peptide 944.02 / IC50 of test peptide. The conditions noted are these: remark: other sources report otherwise.
Test [20] addresses HLA-A*0101 (purified HLA class I molecule) (human). The experiment in a line: competition with 125I-labelled standard peptide on purified HLA-A*0101, gel filtration. The conditions noted are these: remark: other sources report otherwise.
Test [21] addresses HLA-A*0201 (human). The experiment in a line: inhibition of 125I-labelled probe peptide binding to purified HLA, gel filtration. The conditions noted are these: remark: other sources report otherwise; scale: ratio.
Test [22] concerns the target HLA-A*6802 (human). The experiment in a line: competition for purified HLA vs 125I-labelled probe peptide, gel filtration. The conditions noted are these: remark: other sources report otherwise.
For test [23], the target named is HLA-A*6802 (human). The experiment in a line: competition with 125I-labelled probe peptide for purified HLA, gel filtration. The conditions noted are these: remark: other sources report otherwise.
For test [24], the target named is HLA-A*0201 (human). The experiment in a line: competitive inhibition of 125I-labeled probe peptide binding to purified HLA-A*0201. The conditions noted are these: remark: other sources report otherwise.
The target of test [25] is HLA-A*6802 (human). The experiment in a line: competition with 125I probe peptide for purified HLA. The conditions noted are these: remark: other sources report otherwise.
The target in test [26] is HLA-A*0201 (human). The experiment in a line: competition for purified HLA vs 125I-labelled probe peptide, gel filtration. The conditions noted are these: remark: other sources report otherwise.
Test [27] has as its target HLA-A*1101 (human). The experiment in a line: competitive inhibition of 125I-labeled probe peptide binding to purified HLA-A*1101, gel filtration. The conditions noted are these: remark: other sources report otherwise; scale: ratio.
The target in test [28] is HLA-B*5301 (human). The experiment in a line: competition vs 125I-labeled standard peptide, purified HLA. The conditions noted are these: remark: other sources report otherwise.
Test [29] addresses HLA-B*5401 (human). Described as above. The conditions noted are these: remark: other sources report otherwise.

Some results are limits rather than exact numbers.

The record followed here is patent US20040018971A1.

The IC50 is the midpoint of a concentration-inhibition curve.

B1: Her2/neu.648 (peptide)
peptide: ASPLTSIISAVVGIL
For the molecule B1, in test [1], the IC50 was determined as 73 nM.

B2: Her2/neu.783 (peptide)
peptide: SRLLGICLTSTVQLV
For B2, the IC50 in test [2], in [3] and in test [4] was 14 nM in each case.

B3: Her2/neu.793 (peptide)
peptide: TVQLVTQLMPYGCLL
As to B3, the IC50 in [2] was determined as 22 nM; in test [5], 2500 nM; in test [3], 22 nM; in test [6], 2500 nM.

B4: Her2/neu.666 (peptide)
peptide: VLGVVFGILIKRRQQ
Turning to B4, the IC50 in [7] and in [8] was 43 nM throughout.

B5: Her2/neu.806 (peptide)
peptide: LLDHVRENR
In test [9], B5 had an IC50 of 500 nM.

B6: HER2/neu peptide … (position 342) (peptide)
peptide: CYGLGMEHLREVRAV
In the case of B6, in [10], the relative binding ratio (ratio to standard peptide) came out at 0.0083. The relative binding ratio in [11] turned out to be 0.0083.

B7: Her2/neu.482 (peptide)
peptide: WDQLFRNPHQALLHT
In test [12], B7 gave an IC50 of less than 1000 nM.

B8: Her2/neu.846.V2 (peptide)
peptide: LVARNVLVK
modifications: not checked
In [9], B8 came in with an IC50 of 9000 nM.

B9: HER2/neu peptide … (position 969) (peptide)
peptide: FRELVSEFSRMARDP
Turning to B9, in test [10], the relative binding ratio (ratio to standard peptide) is 0.071. For the same molecule, the relative binding ratio in [11] is 0.071.

B10: HER2/neu DR supermotif exemplary peptide … (position 547) (peptide)
peptide: LQGLPREYVNARHCL
For the molecule B10, the relative binding ratio (ratio (standard IC50 / test IC50)) in [13] is -0.0027.

B11: HER2/neu peptide … (position 1109) (peptide)
peptide: LQRYSEDPTVPLPSE
Consider B11, for which the relative binding ratio (ratio to standard peptide) in [10] stood at 0.027.

B12: Her2/neu.912 (peptide)
peptide: VWELMTFGAKPYDGI
For B12, the IC50 was determined as 58 nM in [2]; 58 nM in test [3]; 3700 nM in [7]; 58 nM in test [4]; 3700 nM in [8].

B13: HER2/neu peptide, position 246, 9 amino acids (peptide)
peptide: GPKHSDCLA
As for B13, the relative binding ratio in test [14] (remark: other sources report otherwise) was found to be 0.0001.

B14: HER2/neu peptide, position 899, 10 amino acids (peptide)
peptide: FTHQSDVWSY
Consider B14, for which the relative binding ratio in test [15] and in [19] was 2.7 in each case. For the same molecule, the relative binding ratio (IC50 of standard peptide / IC50 of test peptide) (relative binding ratio) in [16] amounted to 0.0005; in test [17], 2.7. In test [18], the relative binding ratio (IC50 of standard peptide / IC50 of test peptide) came to 0.0003.

B15: HER2/neu peptide, position 279, 11 amino acids (peptide)
peptide: FESMPNPEGRY
B15: the relative binding ratio (IC50 of standard peptide / IC50 of test peptide) (relative binding ratio) in test [17] worked out at 0.0049.

B16: HER2/neu DR supermotif exemplary peptide … (position 1109) (peptide)
peptide: LQRYSEDPTVPLPSE
As to B16, the relative binding ratio (ratio (standard IC50 / test IC50)) in test [13] was 0.027.

B17: HER2/neu peptide, position 1213, 10 amino acids (peptide)
peptide: FSPAFDNLYY
In the case of B17, the relative binding ratio in [15] came out at 5.5. For the same molecule, the relative binding ratio (IC50 of standard peptide / IC50 of test peptide) in test [20] is 5.5; in test [18] it was 0.0005. Further, the relative binding ratio (IC50 of standard peptide / IC50 of test peptide) (relative binding ratio) is 0.001 in test [16] and 5.5 in test [17].

B18: HER2/neu peptide, position 444, 10 amino acids (peptide)
peptide: TLQGLGISWL
For the molecule B18, the relative binding ratio in test [21] was determined as 0.0011.

B19: HER2/neu peptide, position 941, 11 amino acids (peptide)
peptide: LPQPPICTIDV
modifications: not checked
In the case of B19, the relative binding ratio in test [14] is 0.0032.

B20: HER2/neu DR supermotif exemplary peptide … (position 378) (peptide)
peptide: PESFDGDPASNTAPL
As to B20, the relative binding ratio (ratio (standard IC50 / test IC50)) in test [13] was -0.0027.

B21: Her2/neu.367 (peptide)
peptide: CKKIFGSLAFLPESF
Consider B21, for which the IC50 in test [2] and in test [3] was 21 nM each time.

B22: Her2/neu.665 (peptide)
peptide: VVLGVVFGI
For B22, the figures for the IC50 in test [22], in test [23] and in test [24] were 2000 nM, 2000 nM and less than 500 nM, respectively.

B23: Her2/neu.789 … (peptide)
peptide: CLTSTVQLV
For the molecule B23, the IC50 in test [25] was found to be 8000 nM.

B24: HER2/neu peptide … (position 547) (peptide)
peptide: LQGLPREYVNARHCL
Take B24: the relative binding ratio (ratio to standard peptide) in test [10] is -0.0027.

B25: HER2/neu peptide … (position 378) (peptide)
peptide: PESFDGDPASNTAPL
For B25, the relative binding ratio (ratio to standard peptide) in test [10] was -0.0027.

B26: Her2/neu.665 … (peptide)
peptide: VVLGVVFGI
The molecule B26 had an IC50 in test [25] of 2000 nM.

B27: Her2/neu.789 (peptide)
peptide: CLTSTVQLV
As for B27, the figures for the IC50 in [22] and in test [24] were 8000 nM and less than 500 nM, respectively.

B28: Her2/neu.773 (peptide)
peptide: VMAGVGSPYV
For B28, the figures for the IC50 in [26] and in test [24] were 200 nM and less than 500 nM, respectively.

B29: Her2/neu.717 (peptide)
peptide: ETELRKVKVLGSGAF
B29 returned an IC50 in test [1] of 2500 nM.

B30: Her2/neu.422 (peptide)
peptide: LSVFQNLQVIRGRIL
Take B30: the IC50 was 28 nM in test [2], 86 nM in test [5], 28 nM in [3] and 86 nM in [6].

B31: Her2/neu.59 (peptide)
peptide: NLELTYLPTNASLSF
For the molecule B31, the IC50 in [2] and in test [3] was 11 nM throughout.

B32: HER2/neu peptide, position 826, 10 amino acids (peptide)
peptide: CMQIAKGMSY
In the case of B32, the relative binding ratio came to 0.3 in test [15] and 0.0001 in test [27]. Also, in [20], the relative binding ratio (IC50 of standard peptide / IC50 of test peptide) was 0.3. Moreover, the relative binding ratio (IC50 of standard peptide / IC50 of test peptide) (relative binding ratio) in [17] is 0.3.

B33: HER2/neu peptide, position 1172, 9 amino acids (peptide)
peptide: TLSPGKNGV
In the case of B33, the relative binding ratio in test [21] amounted to 0.0002.

B34: HER2/neu peptide, position 851, 9 amino acids (peptide)
peptide: VLVKSPNHV
As for B34, the relative binding ratio in test [21] was 0.0002.

B35: Her2/neu.921, 8-mer (peptide)
peptide: KPYDGIPA
For the molecule B35, the IC50 in test [28] stood at 490 nM; in [29], 29 nM.
